This passage reports stoichiometry N results from PMC7498309.

For assay [1], the target named is isolated CARF domain (1–169 aa) of StCsm6 (Streptococcus thermophilus DGCC8004). Nature of the assay: SEC.
Assay [2] has as its target isolated HEPN domain (172–428 aa) of StCsm6 (Streptococcus thermophilus DGCC8004). Nature of the assay: SEC.

“isolated CARF domain (1–169 aa) of StCsm6 (domain or fragment)” came in with a stoichiometry N in assay [1] of 2.
“isolated HEPN domain (172–428 aa) of StCsm6 (domain or fragment)”: the stoichiometry N in assay [2] came out at 2.
